Source: IntAct's records for PubMed 15916946

B1: Serine/threonine-protein kinase tousled-like 1 (Caenorhabditis elegans), P34314 (parent)
chain: MSMLSMDGIVAGGGSSSGGGERSFVLEQKMFNTGPQNKALPTVQSSGSSSNHAPIVGESPLGTVSSTMATGDTGRVGNVTYMSSGMLGATQFMPQNSSHPSTSVMMQQVPPQNGGATRSSPTEMQQCMQAMSEDSIEMRDYNSGVHHMHPHQMQMQQQQQHHQQQYNMSYHNHQQQMQQMHYHQQQQQYQQQQAQHHQMYAPQIQQQQQQPQQQSQQQSAQQPQQSSAALQHVNESSNLSSAGSISDREPEQHGGTPQRPTAPQSSTATDKKTRKRRKAGPTEDQATPKQERKITEFMKVGGEVASGNSVARCLLTEYHQNQGSPKRQPAVQQNGSNSYDSQQQQPQMNQHEMQNSYWGVATPSLGVNNRGTPTPTQQQHYSSDSNSNSNQSPPGQGNQSGRMVRTIDEETQTDSSLSQANPQNADEVAKMNRIIEDHRRQIEELNSKNSLERRKNEASKETIKRLLIDKNQIERKALRDKTAADSPRIGCFKTTRTGDSFRDQWVDGWAFAEMDKKTEQINAERNEIASASALLKKRKPLGIGKEPKRPQAVNSQNDSNGMQPSTSSNTNGDDAIFRRPEEPKEIQYQEYIELDEIYKLRREHLRKEETDLSMEKERLEKEKQHHVRELKRASNESASQFNDHRLLHKRYLMLNLLGKGGFSEVWKAFDIEENRYVACKIHHVNKDWKEEKKANYVKHAMREKDIHKSLDHCRIVKQYDLLTIDNHSFCTVLEYVPGNDLDFYLKQNRSISEKEARSIIMQVVSALVYLNEKSTPIIHYDLKPANILLESGNTSGAIKITDFGLSKIMEGESDDHDLGIELTSQFAGTYWYLPPETFIVPPPKITCKVDVWSIGVIFYQCIYGKKPFGNDLTQQKILEYNTIINAREVSFPSKPQVSSAAQDFIRRCLQYRKEDRADVFELAKHELFRPRGAIRASVAGSLLLVIITLCQHSNRSEDRLCVSNV
partner: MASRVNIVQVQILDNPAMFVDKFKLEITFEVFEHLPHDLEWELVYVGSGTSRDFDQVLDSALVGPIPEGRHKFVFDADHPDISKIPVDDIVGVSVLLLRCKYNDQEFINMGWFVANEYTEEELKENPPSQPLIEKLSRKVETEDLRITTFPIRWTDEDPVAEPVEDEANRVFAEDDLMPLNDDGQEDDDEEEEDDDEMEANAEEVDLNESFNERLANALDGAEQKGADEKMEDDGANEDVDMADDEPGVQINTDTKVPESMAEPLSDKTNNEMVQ

Variants of: B1
Settings: with asf1_caeel unc-85, Q19326

effect of a mutation on the interaction | Variant
increasing interaction | S634A
increasing interaction | S634E
